According to patent EP4772193A1 (Teijin Pharma Limited, dated 2026):

T1: recombinant human soluble gpNMB (recombinant human gpNMB-FLAG-His) (human, UniProt Q14956 23-498)
T1 sequence: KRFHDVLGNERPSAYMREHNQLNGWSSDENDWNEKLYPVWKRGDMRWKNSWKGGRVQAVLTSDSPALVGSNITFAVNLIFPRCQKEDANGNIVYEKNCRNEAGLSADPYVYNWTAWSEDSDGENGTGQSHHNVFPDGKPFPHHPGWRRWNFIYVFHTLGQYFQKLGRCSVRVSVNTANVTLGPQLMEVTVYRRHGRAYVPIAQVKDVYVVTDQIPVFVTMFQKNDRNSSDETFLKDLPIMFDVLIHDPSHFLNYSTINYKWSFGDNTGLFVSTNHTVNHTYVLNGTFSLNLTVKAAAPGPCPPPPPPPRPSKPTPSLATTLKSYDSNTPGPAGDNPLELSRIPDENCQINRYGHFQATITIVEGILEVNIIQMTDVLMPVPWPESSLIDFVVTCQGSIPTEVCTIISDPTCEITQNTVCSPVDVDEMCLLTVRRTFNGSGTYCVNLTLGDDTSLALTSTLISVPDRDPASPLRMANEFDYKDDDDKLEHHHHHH


Tests used:
[1] = molecular target: T1, recombinant human soluble gpNMB …; experiment: antigen ELISA
[2] = molecular target: T1, recombinant human soluble gpNMB …; experiment: antigen ELISA, vs hGPN06-1_H1L1

Binder | EC50 [1] [nM] | Relative binding activity [2]
hGPN06-1_H1L1 VL P94A (antibody, V domains shown) VH: QVQLVQSGAEVKKPGASVKVSCKASGYTFTDNWMGWVKQRPGQGLEWIGAIDPSDSFTNYNQNFKGRVTMTVDTSISTAYMELSRLRSDDSAVYFCTRSGYYGSPKLGGDYWGQGTLVTVSS VL: EIVLTQSPSSLSASVGDRVTITCSASSSISYMHWYQQKSGTAPKLLIYSTSNLASGVPSRFSGSGSGTDFTFTISSLQPEDAATYYCHQWNSYACTFGGGTKLEIK | 26.4 | 0.05
hGPN06-1_H1L1 VL Q89A (antibody, V domains shown) VH: QVQLVQSGAEVKKPGASVKVSCKASGYTFTDNWMGWVKQRPGQGLEWIGAIDPSDSFTNYNQNFKGRVTMTVDTSISTAYMELSRLRSDDSAVYFCTRSGYYGSPKLGGDYWGQGTLVTVSS VL: EIVLTQSPSSLSASVGDRVTITCSASSSISYMHWYQQKSGTAPKLLIYSTSNLASGVPSRFSGSGSGTDFTFTISSLQPEDAATYYCHAWNSYPCTFGGGTKLEIK | 27.5 | 0.06
hGPN06-1_H1L1 VL M32A (antibody, V domains shown) VH: QVQLVQSGAEVKKPGASVKVSCKASGYTFTDNWMGWVKQRPGQGLEWIGAIDPSDSFTNYNQNFKGRVTMTVDTSISTAYMELSRLRSDDSAVYFCTRSGYYGSPKLGGDYWGQGTLVTVSS VL: EIVLTQSPSSLSASVGDRVTITCSASSSISYAHWYQQKSGTAPKLLIYSTSNLASGVPSRFSGSGSGTDFTFTISSLQPEDAATYYCHQWNSYPCTFGGGTKLEIK | 6.4 | 0.65
hGPN06-1_H1L1 VL S26A (antibody, V domains shown) VH: QVQLVQSGAEVKKPGASVKVSCKASGYTFTDNWMGWVKQRPGQGLEWIGAIDPSDSFTNYNQNFKGRVTMTVDTSISTAYMELSRLRSDDSAVYFCTRSGYYGSPKLGGDYWGQGTLVTVSS VL: EIVLTQSPSSLSASVGDRVTITCSAASSISYMHWYQQKSGTAPKLLIYSTSNLASGVPSRFSGSGSGTDFTFTISSLQPEDAATYYCHQWNSYPCTFGGGTKLEIK | 1.09 | 0.75
hGPN06-1_H1L1 VL S55A (antibody, V domains shown) VH: QVQLVQSGAEVKKPGASVKVSCKASGYTFTDNWMGWVKQRPGQGLEWIGAIDPSDSFTNYNQNFKGRVTMTVDTSISTAYMELSRLRSDDSAVYFCTRSGYYGSPKLGGDYWGQGTLVTVSS VL: EIVLTQSPSSLSASVGDRVTITCSASSSISYMHWYQQKSGTAPKLLIYSTSNLAAGVPSRFSGSGSGTDFTFTISSLQPEDAATYYCHQWNSYPCTFGGGTKLEIK | 0.603 | 1
hGPN06-1_H1L1 VL S24A (antibody, V domains shown) VH: QVQLVQSGAEVKKPGASVKVSCKASGYTFTDNWMGWVKQRPGQGLEWIGAIDPSDSFTNYNQNFKGRVTMTVDTSISTAYMELSRLRSDDSAVYFCTRSGYYGSPKLGGDYWGQGTLVTVSS VL: EIVLTQSPSSLSASVGDRVTITCAASSSISYMHWYQQKSGTAPKLLIYSTSNLASGVPSRFSGSGSGTDFTFTISSLQPEDAATYYCHQWNSYPCTFGGGTKLEIK | 1.99 | 0.98
hGPN06-1_H1L1 VL N52A (antibody, V domains shown) VH: QVQLVQSGAEVKKPGASVKVSCKASGYTFTDNWMGWVKQRPGQGLEWIGAIDPSDSFTNYNQNFKGRVTMTVDTSISTAYMELSRLRSDDSAVYFCTRSGYYGSPKLGGDYWGQGTLVTVSS VL: EIVLTQSPSSLSASVGDRVTITCSASSSISYMHWYQQKSGTAPKLLIYSTSALASGVPSRFSGSGSGTDFTFTISSLQPEDAATYYCHQWNSYPCTFGGGTKLEIK | 0.85 | 0.74
hGPN06-1_H1L1 VL N91A (antibody, V domains shown) VH: QVQLVQSGAEVKKPGASVKVSCKASGYTFTDNWMGWVKQRPGQGLEWIGAIDPSDSFTNYNQNFKGRVTMTVDTSISTAYMELSRLRSDDSAVYFCTRSGYYGSPKLGGDYWGQGTLVTVSS VL: EIVLTQSPSSLSASVGDRVTITCSASSSISYMHWYQQKSGTAPKLLIYSTSNLASGVPSRFSGSGSGTDFTFTISSLQPEDAATYYCHQWASYPCTFGGGTKLEIK | 1.84 | 0.58

The remaining binders from weak to strong by EC50 [1], led by results:

EC50 [1] [nM] | Relative binding activity [2] | Binder
147 | 0.08 | hGPN06-1_H1L1 VL H88A (antibody, V domains shown) VH: QVQLVQSGAEVKKPGASVKVSCKASGYTFTDNWMGWVKQRPGQGLEWIGAIDPSDSFTNYNQNFKGRVTMTVDTSISTAYMELSRLRSDDSAVYFCTRSGYYGSPKLGGDYWGQGTLVTVSS VL: EIVLTQSPSSLSASVGDRVTITCSASSSISYMHWYQQKSGTAPKLLIYSTSNLASGVPSRFSGSGSGTDFTFTISSLQPEDAATYYCAQWNSYPCTFGGGTKLEIK
23 | 0.27 | hGPN06-1_H1L1 VL I29A (antibody, V domains shown) VH: QVQLVQSGAEVKKPGASVKVSCKASGYTFTDNWMGWVKQRPGQGLEWIGAIDPSDSFTNYNQNFKGRVTMTVDTSISTAYMELSRLRSDDSAVYFCTRSGYYGSPKLGGDYWGQGTLVTVSS VL: EIVLTQSPSSLSASVGDRVTITCSASSSASYMHWYQQKSGTAPKLLIYSTSNLASGVPSRFSGSGSGTDFTFTISSLQPEDAATYYCHQWNSYPCTFGGGTKLEIK
8.63 | 0.58 | hGPN06-1_H1L1 VL S30A (antibody, V domains shown) VH: QVQLVQSGAEVKKPGASVKVSCKASGYTFTDNWMGWVKQRPGQGLEWIGAIDPSDSFTNYNQNFKGRVTMTVDTSISTAYMELSRLRSDDSAVYFCTRSGYYGSPKLGGDYWGQGTLVTVSS VL: EIVLTQSPSSLSASVGDRVTITCSASSSIAYMHWYQQKSGTAPKLLIYSTSNLASGVPSRFSGSGSGTDFTFTISSLQPEDAATYYCHQWNSYPCTFGGGTKLEIK
3.19 | 0.3 | hGPN06-1_H1L1 VL T50A (antibody, V domains shown) VH: QVQLVQSGAEVKKPGASVKVSCKASGYTFTDNWMGWVKQRPGQGLEWIGAIDPSDSFTNYNQNFKGRVTMTVDTSISTAYMELSRLRSDDSAVYFCTRSGYYGSPKLGGDYWGQGTLVTVSS VL: EIVLTQSPSSLSASVGDRVTITCSASSSISYMHWYQQKSGTAPKLLIYSASNLASGVPSRFSGSGSGTDFTFTISSLQPEDAATYYCHQWNSYPCTFGGGTKLEIK
1.86 | 0.19 | hGPN06-1_H1L1 VL S92A (antibody, V domains shown) VH: QVQLVQSGAEVKKPGASVKVSCKASGYTFTDNWMGWVKQRPGQGLEWIGAIDPSDSFTNYNQNFKGRVTMTVDTSISTAYMELSRLRSDDSAVYFCTRSGYYGSPKLGGDYWGQGTLVTVSS VL: EIVLTQSPSSLSASVGDRVTITCSASSSISYMHWYQQKSGTAPKLLIYSTSNLASGVPSRFSGSGSGTDFTFTISSLQPEDAATYYCHQWNAYPCTFGGGTKLEIK
1.56 | 0.99 | hGPN06-1_H1L1 VL S27A (antibody, V domains shown) VH: QVQLVQSGAEVKKPGASVKVSCKASGYTFTDNWMGWVKQRPGQGLEWIGAIDPSDSFTNYNQNFKGRVTMTVDTSISTAYMELSRLRSDDSAVYFCTRSGYYGSPKLGGDYWGQGTLVTVSS VL: EIVLTQSPSSLSASVGDRVTITCSASASISYMHWYQQKSGTAPKLLIYSTSNLASGVPSRFSGSGSGTDFTFTISSLQPEDAATYYCHQWNSYPCTFGGGTKLEIK
1.27 | 1.18 | hGPN06-1_H1L1 VL S28A (antibody, V domains shown) VH: QVQLVQSGAEVKKPGASVKVSCKASGYTFTDNWMGWVKQRPGQGLEWIGAIDPSDSFTNYNQNFKGRVTMTVDTSISTAYMELSRLRSDDSAVYFCTRSGYYGSPKLGGDYWGQGTLVTVSS VL: EIVLTQSPSSLSASVGDRVTITCSASSAISYMHWYQQKSGTAPKLLIYSTSNLASGVPSRFSGSGSGTDFTFTISSLQPEDAATYYCHQWNSYPCTFGGGTKLEIK
1.03 | 0.83 | hGPN06-1_H1L1 VL T96A (antibody, V domains shown) VH: QVQLVQSGAEVKKPGASVKVSCKASGYTFTDNWMGWVKQRPGQGLEWIGAIDPSDSFTNYNQNFKGRVTMTVDTSISTAYMELSRLRSDDSAVYFCTRSGYYGSPKLGGDYWGQGTLVTVSS VL: EIVLTQSPSSLSASVGDRVTITCSASSSISYMHWYQQKSGTAPKLLIYSTSNLASGVPSRFSGSGSGTDFTFTISSLQPEDAATYYCHQWNSYPCAFGGGTKLEIK
0.927 | 0.82 | hGPN06-1_H1L1 VL S51A (antibody, V domains shown) VH: QVQLVQSGAEVKKPGASVKVSCKASGYTFTDNWMGWVKQRPGQGLEWIGAIDPSDSFTNYNQNFKGRVTMTVDTSISTAYMELSRLRSDDSAVYFCTRSGYYGSPKLGGDYWGQGTLVTVSS VL: EIVLTQSPSSLSASVGDRVTITCSASSSISYMHWYQQKSGTAPKLLIYSTANLASGVPSRFSGSGSGTDFTFTISSLQPEDAATYYCHQWNSYPCTFGGGTKLEIK
0.7 | 0.79 | hGPN06-1_H1L1 VL S49A (antibody, V domains shown) VH: QVQLVQSGAEVKKPGASVKVSCKASGYTFTDNWMGWVKQRPGQGLEWIGAIDPSDSFTNYNQNFKGRVTMTVDTSISTAYMELSRLRSDDSAVYFCTRSGYYGSPKLGGDYWGQGTLVTVSS VL: EIVLTQSPSSLSASVGDRVTITCSASSSISYMHWYQQKSGTAPKLLIYATSNLASGVPSRFSGSGSGTDFTFTISSLQPEDAATYYCHQWNSYPCTFGGGTKLEIK
0.564 | 0.98 | hGPN06-1_H1L1 VL L53A (antibody, V domains shown) VH: QVQLVQSGAEVKKPGASVKVSCKASGYTFTDNWMGWVKQRPGQGLEWIGAIDPSDSFTNYNQNFKGRVTMTVDTSISTAYMELSRLRSDDSAVYFCTRSGYYGSPKLGGDYWGQGTLVTVSS VL: EIVLTQSPSSLSASVGDRVTITCSASSSISYMHWYQQKSGTAPKLLIYSTSNAASGVPSRFSGSGSGTDFTFTISSLQPEDAATYYCHQWNSYPCTFGGGTKLEIK
